# Data as given in patent US20200046811.
# Molecular target: T1, Recombinant Human FGF23 (Fibroblast Growth Factor 23) (UniProt Q9GZV9)
# T1 sequence: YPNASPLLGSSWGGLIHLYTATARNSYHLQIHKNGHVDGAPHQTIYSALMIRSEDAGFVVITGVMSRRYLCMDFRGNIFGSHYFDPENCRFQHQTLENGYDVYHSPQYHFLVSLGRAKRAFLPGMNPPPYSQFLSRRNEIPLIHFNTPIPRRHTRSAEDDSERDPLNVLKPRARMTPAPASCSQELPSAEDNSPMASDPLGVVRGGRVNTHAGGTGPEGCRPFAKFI
substance,measurement,value
Recombinant human uPA (urokinase plasminogen activator),"in vitro proteolysis of FGF23, silver stained SDS-PAGE gel",smaller fragments are generated on a silver stained SDS-PAGE gel indicating proteolytic cleavage
